The values below come from article PMC6769022, “Identification of an adhesive interface for the non-clustered δ1 protocadherin-1 involved in respiratory diseases” (Communications Biology, 2019).

Where a chain is given by its changes, count along the chain named. Names and notes keep the numbering of the source. A value given as a limit tells only on which side of the number the result lay.

Series [1] concerns the molecule itself. Nature of the series: bead aggregation assay; Fc fusions from concentrated HEK293T medium bound to protein G Dynabeads, washed; binding buffer 50 mM TrisHCl pH 7.5, 100 mM NaCl, 10 mM KCl, 0.2% BSA with 2 mM CaCl2; 60 min without motion, then 1 and 2 min rocking; aggregates imaged.
Series [2] concerns the molecule itself. Nature of the series: AUC; sedimentation velocity, 50,000 r.p.m., 20 °C, 20 mM Tris-HCl pH 8.0, 150 mM KCl, 50 mM NaCl, 2 mM CaCl2; dimer to monomers.
Series [3] deals with the molecule itself. Nature of the series: crystal structure; vapor diffusion at 4 °C; one molecule in the asymmetric unit, antiparallel dimers formed by crystal symmetry.

B1: PCDH1 EC1-7Fc (Fc fusion, human, UniProt Q08174 58-852, looked up)
chain: TRVVYKVPEEQPPNTLIGSLAADYGFPDVGHLYKLEVGAPYLRVDGKTGDIFTTETSIDREGLRECQNQLPGDPCILEFEVSITDLVQNGSPRLLEGQIEVQDINDNTPNFASPVITLAIPENTNIGSLFPIPLASDRDAGPNGVASYELQAGPEAQELFGLQVAEDQEEKQPQLIVMGNLDRERWDSYDLTIKVQDGGSPPRASSALLRVTVLDTNDNAPKFERPSYEAELSENSPIGHSVIQVKANDSDQGANAEIEYTFHQAPEVVRRLLRLDRNTGLITVQGPVDREDLSTLRFSVLAKDRGTNPKSARAQVVVTVKDMNDNAPTIEIRGIGLVTHQDGMANISEDVAEETAVALVQVSDRDEGENAAVTCVVAGDVPFQLRQASETGSDSKKKYFLQTTTPLDYEKVKDYTIEIVAVDSGNPPLSSTNSLKVQVVDVNDNAPVFTQSVTEVAFPENNKPGEVIAEITASDADSGSNAELVYSLEPEPAAKGLFTISPETGEIQVKTSLDREQRESYELKVVAADRGSPSLQGTATVLVNVLDCNDNDPKFMLSGYNFSVMENMPALSPVGMVTVIDGDKGENAQVQLSVEQDNGDFVIQNGTGTILSSLSFDREQQSTYTFQLKAVDGGVPPRSAYVGVTINVLDENDNAPYITAPSNTSHKLLTPQTRLGETVSQVAAEDFDSGVNAELIYSIAGGNPYGLFQIGSHSGAITLEKEIERRHHGLHRLVVKVSDRGKPPRYGTALVHLYVNETLANRTLLETLLGHSLDTPLDIDIAGDPEYERSKQRGN
notes: Protocadherin-1 (PCDH1), human, repeats EC1 to EC7 (full-length extracellular domain); native signal peptide in the construct; Vector CMV:N1-Fc; Fc detected with anti-human IgG; also called human Protocadherin-1 full-length extracellular domain, Fc-tagged; wild-type PCDH1 EC1-7Fc; source: HEK293T, transfected, secreted into serum-free medium, captured on protein G Dynabeads
Take B1: the binding result in series [1] is “binds”.

B2: PCDH1 EC1-7Fc V115R (Fc fusion, human, UniProt Q08174 58-852, looked up)
chain: B1 chain with V115R
notes: Protocadherin-1 (PCDH1), human, repeats EC1 to EC7; native signal peptide in the construct; Vector CMV:N1-Fc; source: HEK293T, transfected, secreted into serum-free medium, captured on protein G Dynabeads
Regarding B2, in series [1], the binding result is recorded as “binds”.

B3: PCDH1 EC1-7Fc C375S C548S (Fc fusion, human, UniProt Q08174 58-852, looked up)
chain: B1 chain with C375S, C548S
notes: as for B2
Regarding B3, in series [1], the binding result was “binds”.

B4: PCDH1 EC1-5 C375S C548S (domain or fragment)
chain: MTRVVYKVPEEQPPNTLIGSLAADYGFPDVGHLYKLEVGAPYLRVDGKTGDIFTTETSIDREGLRECQNQLPGDPCILEFEVSITDLVQNGSPRLLEGQIEVQDINDNTPNFASPVITLAIPENTNIGSLFPIPLASDRDAGPNGVASYELQAGPEAQELFGLQVAEDQEEKQPQLIVMGNLDRERWDSYDLTIKVQDGGSPPRASSALLRVTVLDTNDNAPKFERPSYEAELSENSPIGHSVIQVKANDSDQGANAEIEYTFHQAPEVVRRLLRLDRNTGLITVQGPVDREDLSTLRFSVLAKDRGTNPKSARAQVVVTVKDMNDNAPTIEIRGIGLVTHQDGMANISEDVAEETAVALVQVSDRDEGENAAVTSVVAGDVPFQLRQASETGSDSKKKYFLQTTTPLDYEKVKDYTIEIVAVDSGNPPLSSTNSLKVQVVDVNDNAPVFTQSVTEVAFPENNKPGEVIAEITASDADSGSNAELVYSLEPEPAAKGLFTISPETGEIQVKTSLDREQRESYELKVVAADRGSPSLQGTATVLVNVLDSNDNDLEHHHHHH
For B4, in series [2], the dissociation constant (Kd) was less than 5 µM and the “stoichiometry N” value amounted to 2.

B5: PCDH1 EC1-5 C375S C548S V115R (domain or fragment)
chain: B4 chain with V116R
Take B5: the “stoichiometry N” value in series [2] stood at 2.

B6: Hs PCDH1 EC1-4bc (domain or fragment, human)
chain: TRVVYKVPEEQPPNTLIGSLAADYGFPDVGHLYKLEVGAPYLRVDGKTGDIFTTETSIDREGLRECQNQLPGDPCILEFEVSITDLVQNGSPRLLEGQIEVQDINDNTPNFASPVITLAIPENTNIGSLFPIPLASDRDAGPNGVASYELQAGPEAQELFGLQVAEDQEEKQPQLIVMGNLDRERWDSYDLTIKVQDGGSPPRASSALLRVTVLDTNDNAPKFERPSYEAELSENSPIGHSVIQVKANDSDQGANAEIEYTFHQAPEVVRRLLRLDRNTGLITVQGPVDREDLSTLRFSVLAKDRGTNPKSARAQVVVTVKDMNDNAPTIEIRGIGLVTHQDGMANISEDVAEETAVALVQVSDRDEGENAAVTCVVAGDVPFQLRQASETGSDSKKKYFLQTTTPLDYEKVKDYTIEIVAVDSGNPPLSSTNSLKVQVVDVNDNA
notes: Protocadherin-1 (PCDH1), human, repeats EC1 to EC4, without signal peptide; also called PCDH1 EC1-4 (bacterially produced, wild type)
For the protein B6, in series [3], the binding result is “binds”.

B7: PCDH1 EC1-4Fc (Fc fusion, human)
chain: B6 chain
notes: Protocadherin-1 (PCDH1), human, repeats EC1 to EC4; native signal peptide in the construct; Vector CMV:N1-Fc; PDB 6MGA holds the His-tagged mammalian EC1-4 fragment; source: HEK293T, transfected, secreted into serum-free medium, captured on protein G Dynabeads
As to B7, in series [1], the binding result is on record as “binds”.

B8: PCDH1 EC1-4 C375S (domain or fragment, human)
chain: B6 chain with C375S
notes: Protocadherin-1 (PCDH1), human, repeats EC1 to EC4, without signal peptide; Parent (wild-type bacterial EC1-4) is in PDB 6BX7; also called bacterially produced PCDH1 EC1-4 C375S
With B8, in series [2], the Kd was less than 5 µM and the “stoichiometry N” value came out at 2.

B9: Hs PCDH1 EC1-4mc (domain or fragment, human)
chain: B6 chain
modifications: sugars observed at N248 (N-linked) and S430 (O-linked) in the structure
notes: Protocadherin-1 (PCDH1), human, repeats EC1 to EC4; Vector CMV:N1-His; also called PCDH1 EC1-4His
Take B9: in series [3], the binding result is “binds”.
